T1: Boi2 SH3 (BOI2_YEAST), P39969
T1 chain: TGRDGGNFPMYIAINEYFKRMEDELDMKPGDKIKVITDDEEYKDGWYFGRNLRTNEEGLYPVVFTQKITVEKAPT

T2: Boi1 SH3 (BOI1_YEAST), P38041
T2 chain: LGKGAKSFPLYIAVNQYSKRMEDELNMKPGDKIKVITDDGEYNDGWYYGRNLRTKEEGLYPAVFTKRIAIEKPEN

T3: Rvs167 SH3 (RV167_YEAST), P39743
T3 chain: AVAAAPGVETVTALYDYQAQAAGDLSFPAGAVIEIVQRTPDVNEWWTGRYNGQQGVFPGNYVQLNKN

T4: Yfr024 SH3 (LSB3_YEAST), P43603
T4 chain: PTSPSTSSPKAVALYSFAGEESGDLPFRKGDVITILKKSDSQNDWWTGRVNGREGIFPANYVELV

T5: Yhr016c SH3 (YSC84_YEAST), P32793
T5 chain: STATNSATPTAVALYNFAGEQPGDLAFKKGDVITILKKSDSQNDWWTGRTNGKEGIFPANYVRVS

B1: YOR093C 49-62 (peptide)
chain: QMRPYTPLRSPNSR
B2: YOR322C 391-404 (peptide)
chain: QRLPGEPGREQAPN
B3: YLR086W 108-121 (peptide)
chain: QSPPRSPGRSPTRR
B4: YKL165C 41-54 (peptide)
chain: QSTPTPPAKRLFLI
B5: YBL085W 600-613 (peptide)
chain: QSNPTSPTKQTFTI
B6: YLR430W 1690-1703 (peptide)
chain: QLEPLAPYKFFDII
B7: YBR102C 26-39 (peptide)
chain: QKTPPSPAKPKQKT
B8: YAL051W 100-113 (peptide)
chain: QPAPRIPSKDAIIS
B9: YOR290C 415-428 (peptide)
chain: QNNPPKPQKPVPLN
B10: YBL066C 693-706 (peptide)
chain: QLTPLLPDKYFDSA
B11: YGR268C 24-37 (peptide)
chain: QSQPPRPPRPAANL
B12: YMR191W 37-50 (peptide)
chain: QPKPGNPLRNARLN
B13: YCL008C 175-188 (peptide)
chain: QNTPPLPPKPKSPH
B14: YPR171W 424-437 (peptide)
chain: QQKPAIPQKKSFLT
B15: YCL014W 878-891 (peptide)
chain: QRHPKSPVKKPMTS
B16: YJR147W 216-229 (peptide)
chain: QRQPKRPKRYSLLL
B17: YOR329C 404-417 (peptide)
chain: QQLPLEPLKPTATG
B18: YOR227W 657-670 (peptide)
chain: QMNPKNPIRLGMAN
B19: YOR372C 249-262 (peptide)
chain: QPLPTSPSKRFSSL
B20: YDL150W 198-211 (peptide)
chain: QLFPVRPVRVRHED
B21: YKL159C 151-164 (peptide)
chain: QLLPNNPDKNNNGT
B22: YDL220C 391-404 (peptide)
chain: QLLPNVPDKVLVPG

Assays:
Test in all cases: SPOT array
[1] = molecular target: T1, Boi2 SH3 (BOI2_YEAST), P39969
[2] = molecular target: T2, Boi1 SH3 (BOI1_YEAST), P38041
[3] = molecular target: T3, Rvs167 SH3 (RV167_YEAST), P39743
[4] = molecular target: T4, Yfr024 SH3 (LSB3_YEAST), P43603
[5] = molecular target: T5, Yhr016c SH3 (YSC84_YEAST), P32793

Binder	normalised SPOT signal, Boehringer light units (BLU); mean over the file's lines of this peptide [1]	normalised SPOT signal, Boehringer light units (BLU); mean over the file's lines of this peptide [2]	normalised SPOT signal, Boehringer light units (BLU); mean over the file's lines of this peptide [3]	normalised SPOT signal, Boehringer light units (BLU); mean over the file's lines of this peptide [4]	normalised SPOT signal, Boehringer light units (BLU); mean over the file's lines of this peptide [5]
B1	1420	2880	1140	4420	1440
B2	14	103	2.1	61.7	118
B3	3450	33500	906	1890	408
B4	48.8	56.9	35.4	1420	146
B5	65.7	62.2	60.4	148	182
B6	23.8	85.7	62.7	70.2	334
B7	43.4	331	156	365	176
B8	23.6	58.1	169	1610	95.9
B9	-0	14.1	23.6	116	148
B10	19.8	50.1	106	516	207
B11	16	577	105	27400	11000
B12	21.7	174	49.2	266	169
B13	46	102	1050	38500	18200
B14	71.9	170	42.5	3880	101
B15	90.5	123	192	676	169
B16	194	117	104	5420	613
B17	27.2	143	45.9	257	122
B18	118	679	25.7	866	182
B19	94.3	53.8	32.1	164	249
B20	5900	34100	11400	28800	13600
B21	52.3	149	0	49.9	130
B22	49.5	87.7	67.5	69	92.2

Reference: publication PMC314469, “Protein Interaction Networks by Proteome Peptide Scanning” (PLoS Biology, 2004)
